According to patent publication US20230190943A1, “ALGINIC ACID DERIVATIVE BONDED TO NONSTEROIDAL ANTI-INFLAMMATORY COMPOUND” (MOCHIDA PHARMACEUTICAL CO., LTD., priority 2018, published 2023):

Columns and labels:
[1] = tested on: Rat 1% Silver Nitrate-Induced Pain Model; assay: Intra-articular administration in rat 1% silver nitrate-induced pain model, gait pain score (Example 24); type: in vivo; conditions: for average pain score: scale 0-3, 0.1 mL/kg into left hindlimb knee joint
Protocol: Rats (Crj: SD system (SPF), male, 6 weeks of age) were anesthetized, and a 1% silver nitrate solution was administered into the left hindlimb knee joint cavity at a dose of 50 µL/joint.
The gait state of the rats on the day after the model was created was evaluated by scoring. The rats were divided into groups based on the obtained scores, and under inhalation anesthesia with isoflurane, each test substance was administered at 0.1 mL/kg into the rat left hindlimb knee joint (n = 8).
The gait score was given once a day for 5 days from the day on which test substance was administrated. Note that, as the score on the first day, the score before administration (grouping) was used. Under the blind, the gait state of each group was visually observed using the following pain score table based on the gait state.
The results are shown by the average pain score on Table 16. • 0: Normal • 1: mild claudication with lifting the foot • 2: severe claudication with completely closing the toe • 3: walking on three legs

[2] = Release test of free diclofenac, felbinac, ketoprofen or naproxen in sodium phosphate buffer (Example 23); type: physicochemical
Protocol: (§1) (set temperature of air conditioner). After confirming that no gel was formed, this solution was dispensed. Immediately after the dissolution, the amount of free diclofenac present in each solution was measured by LC-MS/MS as an initial state (day 0 of storage). Also, the other dispensed solutions were incubated at 37° C. for 1, 3, and 7 days, and then the amount of free diclofenac was measured. […] The MS conditions are as follows. • Ionization mode: ESI-negative • Ion source temperature: 300 degrees • Capillary voltage: -4000 V

[3] = rabbit, in vivo
Protocol: For each test substance, 4 rabbits were used, the whole body was fixed with a towel under no anesthesia, the area around the left knee j oint was wiped with alcohol, and then 0.1 mL/kg of each of the above test substances was administered into the j oint cavity from the outside of the rabbit knee using a Terumo 1 mL syringe equipped with a 26 G injection needle (manufactured by Terumo).
Rabbits were exsanguinated and killed under combined anesthesia by intramuscular administration of ketamine hydrochloride and xylazine. The joint capsule was incised just below the patella to expose the knee joint cavity, and the inside of the joint cavity was washed with 2 mL of physiological saline using a catheter with a Surflo indwelling needle 20 G, and the synovial fluid mixed with physiological saline was collected. The amount of DF in the recovered synovial fluid was measured by the following procedure.
The synovial tissue was separated and collected from the knee joint after collecting the synovial fluid in (2) above. The collected synovial tissue was washed with physiological saline to remove the attached synovial fluid. After removing the patella, the synovial tissue was placed in a tube, and the tissue was cut into small pieces with scissors. […] The same extraction operation as in (2) above was performed, and the amount of free diclofenac was measured using LC-MS/MS.

[4] = Release test of free diclofenac from conjugates in 20 mM sodium phosphate buffer, 37°C (Example 11); type: physicochemical; conditions: for Release Rate in Release Test at pH 5.3: pH 5.3, 37°C; for Release Rate in Release Test at pH 5.3 / Release Rate in Release Test at pH 7.0: free diclofenac; for Release Rate in Release Test at pH 7.0: pH 7.0, 37°C
Protocol: as §1

[5] = Day 1 (score before administration, grouping)
[6] = pH 5.3, day 1, free drug (diclofenac, felbinac, ketoprofen or naproxen)
[7] = pH 5.3, day 3, free drug (diclofenac, felbinac, ketoprofen or naproxen)
[8] = pH 5.3, day 7, free drug (diclofenac, felbinac, ketoprofen or naproxen)
[9] = pH 7.0, day 1, free drug (diclofenac, felbinac, ketoprofen or naproxen)
[10] = pH 7.0, day 3, free drug (diclofenac, felbinac, ketoprofen or naproxen)
[11] = pH 7.0, day 7, free drug (diclofenac, felbinac, ketoprofen or naproxen)

Compound | Release Rate in Release Test at pH 5.3 [2, 6] | Release Rate in Release Test at pH 5.3 [2, 7] | Release Rate in Release Test at pH 5.3 [2, 8] | Release Rate in Release Test at pH 7.0 [2, 9] | Release Rate in Release Test at pH 7.0 [2, 10] | Release Rate in Release Test at pH 7.0 [2, 11] | Release Rate in Release Test at pH 5.3 ([4]; Day 1, 0.1% w/w conjugate) | Release Rate in Release Test at pH 5.3 ([4]; Day 3, 0.1% w/w conjugate) | Release Rate in Release Test at pH 5.3 ([4]; Day 7, 0.1% w/w conjugate) | Release Rate in Release Test at pH 7.0 ([4]; Day 1, 0.1% w/w conjugate) | Release Rate in Release Test at pH 7.0 ([4]; Day 3, 0.1% w/w conjugate) | Release Rate in Release Test at pH 7.0 ([4]; Day 7, 0.1% w/w conjugate) | other results
O=C([O-])Cc1ccccc1Nc1c(Cl)cccc1Cl.[Na+] [DF, Diclofenac Na, reference compound] |  |  |  |  |  |  |  |  |  |  |  |  | average pain score [1, 5]: 2.5; average pain score ([1]; Day 2): 1.9; average pain score ([1]; Day 3): 1.9; average pain score ([1]; Day 4): 1.0; average pain score ([1]; Day 5): 0.8
Diclofenac-(2-Amino-1-(4-Hydroxypiperidin-1-Yl)Ethan-1-One)-Alginic Acid Derivative [Compound 63a] | 0.0% | 0.2% | 0.2% | 0.3% | 0.8% | 2.2% |  |  |  |  |  |  | DF retained in the synovial tissue continuously until ... after administration [3]: ≥ 84 days
Diclofenac-(2-Amino-N-(2-Hydroxyethyl)Acetamide)-Alginic Acid Derivative [Compound 53b] | 0.6% | 0.8% | 1.0% | 0.9% | 2.3% | 6.4% |  |  |  |  |  |  | average pain score [1, 5]: 2.5; average pain score ([1]; Day 2): 1.0; average pain score ([1]; Day 3): 0.9; average pain score ([1]; Day 4): 0.5; average pain score ([1]; Day 5): 0.4; degree of pain relief (recovery from pain) ([1]; compared with diclofenac, alginic acid and diclofenac + alginic acid administration groups): faster; DF retained in the synovial tissue continuously until ... after administration [3]: ≥ 84 days
Diclofenac-(2-Amino-N-(3-Hydroxypropyl)Acetamide)-Alginic Acid Derivative [Compound 76b] | 0.3% | 0.5% | 0.6% | 0.4% | 1.4% | 3.6% |  |  |  |  |  |  | 
Diclofenac-(2-Amino-N-(6-Hydroxyhexyl)Acetamide)-Alginic Acid Derivative [Compound 68] | 0.0% | 0.2% | 0.3% | 0.3% | 0.9% | 2.1% |  |  |  |  |  |  | 
Diclofenac-(2-Aminoethanol)-Alginic Acid Derivative [Compound 5a] |  |  |  |  |  |  | 0.0% | 0.1% | 0.2% | 0.2% | 2.3% | 4.1% | 
Diclofenac-(2-Aminoethanol)-Alginic Acid Derivative [Compound 5b] |  |  |  |  |  |  | 0.0% | 0.0% | 0.3% | 0.1% | 2.1% | 5.0% | Release behaviour in the release test at pH 7.0 (in words) [4]: stably released
Diclofenac-(2-Aminoethanol)-Alginic Acid Derivative [Compound 5c] |  |  |  |  |  |  | 0.0% | 0.1% | 0.4% | 0.3% | 2.5% | 5.5% | Release behaviour in the release test at pH 7.0 (in words) [4]: stably released
Diclofenac-(2-Aminoethanol)-Alginic Acid Derivative [Compound 5d] |  |  |  |  |  |  | 0.0% | 0.1% | 0.4% | 0.2% | 2.4% | 5.1% | Release behaviour in the release test at pH 7.0 (in words) [4]: stably released
Diclofenac-(2-Aminoethoxyethanol)-Alginic Acid Derivative [Compound 14] |  |  |  |  |  |  | 0.0% | 0.0% | 0.0% | 0.0% | 0.0% | 0.0% | 
Diclofenac-(2-Aminoethoxyethanol)-Alginic Acid Derivative [Compound 14a] | 0.1% | 0.2% | 0.4% | 0.6% | 1.9% | 4.2% |  |  |  |  |  |  | 
Diclofenac-(2-Aminoethoxyethanol)-Alginic Acid Derivative [Compound 14b] | 0.1% | 0.2% | 0.5% |  |  |  |  |  |  |  |  |  | 
Diclofenac-(3-Amino-2,2-Difluoropropan-1-Ol)-Alginic Acid Derivative [Compound 36] |  |  |  |  |  |  | 0.0% | 0.5% | 1.0% | 1.2% | 8.8% | 12.9% | 
Diclofenac-((4-(Aminomethyl)Phenyl)Methanol)-Alginic Acid Derivative [Compound 28] |  |  |  |  |  |  | 0.0% | 0.1% | 0.3% | 0.1% | 1.2% | 4.0% | 
Diclofenac-(N-(Aminoethyl)-2-Hydroxyacetamide)-Alginic Acid Derivative [Compound 42] |  |  |  |  |  |  | 0.0% | 0.5% | 3.3% | 1.8% | 10.2% | 21.0% | Release behaviour in the release test at pH 7.0 (in words) [4]: stably released
Diclofenac-(N-(Aminoethyl)-2-Hydroxypropanamide)-Alginic Acid Derivative [Compound 47] |  |  |  |  |  |  | 0.0% | 0.1% | 0.7% | 0.8% | 6.1% | 10.9% | Release behaviour in the release test at pH 7.0 (in words) [4]: stably released
Diclofenac-(Serine Ethyl Ester)-Alginic Acid Derivative [Compound 19] |  |  |  |  |  |  | 0.0% | 0.0% | 0.0% | 0.0% | 0.8% | 12.3% | 
Diclofenac-(Threonine Ethyl Ester)-Alginic Acid Derivative [Compound 24] |  |  |  |  |  |  | 0.0% | 0.0% | 0.0% | 0.0% | 1.4% | 5.4% | 
Diclofenac-(Tyramine)-Alginic Acid Derivative [Compound 32] |  |  |  |  |  |  | 0.0% | 1.5% | 7.6% | 0.0% | 5.7% | 15.2% | 
Felbinac-(2-Amino-N-(2-Hydroxyethyl)Acetamide)-Alginic Acid Derivative [Compound 84] | 0.2% | 0.3% | 0.5% | 0.9% | 3.3% | 7.3% |  |  |  |  |  |  | 
